Results reported in US6365161 (Bristol-Myers Squibb, dated 2002).

Target: T1, carcinoembryonic antigen (CEA) (UniProt P06731 35-685)
T1 sequence (looked up): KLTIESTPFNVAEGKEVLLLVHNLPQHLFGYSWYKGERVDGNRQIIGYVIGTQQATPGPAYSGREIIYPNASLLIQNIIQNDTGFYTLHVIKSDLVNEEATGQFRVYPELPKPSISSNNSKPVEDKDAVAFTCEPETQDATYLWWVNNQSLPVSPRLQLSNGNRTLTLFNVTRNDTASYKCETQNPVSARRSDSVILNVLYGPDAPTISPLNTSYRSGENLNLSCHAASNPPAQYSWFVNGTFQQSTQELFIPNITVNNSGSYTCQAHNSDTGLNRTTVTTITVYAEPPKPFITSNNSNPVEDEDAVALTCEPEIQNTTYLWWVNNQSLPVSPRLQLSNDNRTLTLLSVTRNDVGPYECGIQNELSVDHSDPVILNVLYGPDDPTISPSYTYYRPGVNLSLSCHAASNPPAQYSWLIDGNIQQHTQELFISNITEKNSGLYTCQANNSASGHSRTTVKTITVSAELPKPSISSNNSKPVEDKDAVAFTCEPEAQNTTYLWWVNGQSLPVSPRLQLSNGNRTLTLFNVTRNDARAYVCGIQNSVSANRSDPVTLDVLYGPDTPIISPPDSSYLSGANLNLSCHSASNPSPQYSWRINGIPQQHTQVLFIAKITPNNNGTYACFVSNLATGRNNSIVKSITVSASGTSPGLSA
Assay: bispecific ELISA, plates coated with CEA, detection with soluble FcγRI/IgM-µ
Description: ELISA plates are coated with CEA and the blocked with 5% PBA.

- binding result: no binding
B1: single chain antibody H22 encoded by construct 225 (scFv)
scFv: DIQLVESGGGVVQPGRSLRLSCSSSGFIFSDNYMYWVRQAPGKGLEWVATISDGGSYTYYPDSVKGRFTISRDNSKNTLFLQMDSLRPEDTGVYFCARGYYRYEGAMDYWGQGTPVTVSSGGGGSGGGGSGGGGSDIQLTQSPSSLSASVGDRVTITCKSSQSVLYSSNQKNYLAWYQQKPGKAPKLLIYWASTRESGVPSRFSGSGSGTDFTFTISSLQPEDIATYYCHQYLSSWTFGQGTKVEIKSSCSSGGGGSDIAAAEQKLISEEDLNGAAHHHHHH
notes: also called single chain H22 antibody
